Source: patent US20050187175A1 (published 2005)

Biological target: the molecule itself
Test: non-reducing SDS-PAGE of whole cell extracts of transfected HEK293T cells

B1: CPG15-2 (other)
chain: SEGPNRCDTIYQGFAECLIRLGDGMGRGGELQTVCRSWNDFHACASRVLSGCPEEAAAVWESLQQEARRAPHPDNLHILCGAPVSVRERIAGPETNQETLRATA
notes: also called mouse CPG15-2
B1: binds.
